In article PMC6291300:
Read-outs that look alike come from different tables or passages of the source.

What was measured:
[1] = target: Human FcRn (α-chain and β2m) on stably transfected MDCK cells (human) (UniProt P55899); assay: flow cytometry on cells
[2] = target: Human FcRn (α-chain and β2m) on stably transfected MDCK cells (human) (UniProt P55899); assay: flow cytometry on cells; remark: listed apart in the source
[3] = target: Rozanolixizumab (1519.g57 IgG4P); assay: SPR
[4] = target: Rozanolixizumab (1519.g57 IgG4P); assay: SPR; remark: listed apart in the source
[5] = target: Cynomolgus monkey FcRn (α-chain and β2m) on stably transfected MDCK cells (cynomolgus monkey) (UniProt Q8SPV9); assay: flow cytometry on cells
UniProt Q8SPV9, sequence (Q8SPV9 24-365, chain 1 of 2): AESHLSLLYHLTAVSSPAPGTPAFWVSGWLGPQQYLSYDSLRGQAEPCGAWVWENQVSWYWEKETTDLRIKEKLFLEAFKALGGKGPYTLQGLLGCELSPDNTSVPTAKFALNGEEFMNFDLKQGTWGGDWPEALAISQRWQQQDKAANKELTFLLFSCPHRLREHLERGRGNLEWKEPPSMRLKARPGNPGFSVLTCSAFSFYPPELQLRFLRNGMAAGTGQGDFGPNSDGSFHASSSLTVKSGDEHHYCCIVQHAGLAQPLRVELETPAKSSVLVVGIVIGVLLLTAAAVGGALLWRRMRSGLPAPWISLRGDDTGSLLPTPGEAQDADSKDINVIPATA
UniProt Q8SPV9, sequence (Q8SPW0 21-119, chain 2 of 2, further chain): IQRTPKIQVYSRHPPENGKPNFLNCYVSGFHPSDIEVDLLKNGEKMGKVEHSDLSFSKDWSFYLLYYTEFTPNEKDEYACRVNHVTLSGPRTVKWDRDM

[6] = target: Rozanolixizumab (1519.g57 IgG4P); assay: SPR; remark: listed apart in the source

Row | Kd [1] | Kd [2] | Molecule | further results
1 | 440 pM | 420 pM | 1519.g57 Fab’ | –
2 | – | – | Human FcRn extracellular domain (α-chain with β2-microglobulin) (from UniProt P55899 24-297; P61769 21-119) (complex) | Kd [3]: 34 pM; Kd [4]: < 23 pM
3 | 370 pM | 430 pM | Rozanolixizumab (1519.g57 IgG4P) (antibody) | Kd [5]: 1000 pM
4 | – | – | Rat FcRn extracellular domain (α-chain with β2-microglobulin) (complex) chain 1: AEPRLPLMYHLAAVSDLSTGLPSFWATGWLGAQQYLTYNNLRQEADPCGAWIWENQVSWYWEKETTDLKSKEQLFLEAIRTLENQINGTFTLQGLLGCELAPDNSSLPTAVFALNGEEFMRFNPRTGNWSGEWPETDIVGNLWMKQPEAARKESEFLLTSCPERLLGHLERGRQNLEWKEPPSMRLKARPGNSGSSVLTCAAFSFYPPELKFRFLRNGLASGSGNCSTGPNGDGSFHAWSLLEVKRGDEHHYQCQVEHEGLAQPLTVDLDSPARSS chain 2: IQKTPQIQVYSRHPPENGKPNFLNCYVSQFHPPQIEIELLKNGKKIPNIEMSDLSFSKDWSFYILAHTEFTPTETDVYACRVKHVTLKEPKTVTWDRDM | Kd [6]: 99000 pM
